Data reported in patent US20240181094A1, “[161Tb]-BASED RADIOPEPTIDES” (priority 2021, published 2024).
Positions of bridges follow the written chain, without caps; N, C: chain ends. Non-standard residues stand in square brackets, D forms with d. Residues, ends and D or L forms follow the SMILES beside them. *: point of attachment. DOTA = O=C(O)CN1CCN(CC(=O)O)CCN(CC(=O)*)CCN(CC(=O)O)CC1; dPhe(4-NHCONH2) = NC(=O)Nc1ccc(C[C@@H](N)C(=O)O)cc1; Phe(4-Cl) = N[C@@H](Cc1ccc(Cl)cc1)C(=O)O

Legend:
[1] = tested on: AR42 J tumor-bearing mice; assay: Preclinical therapy study in AR42 J tumor-bearing mice; assay type: in vivo; details: 2 x 10 MBq
AR42J tumor-bearing mice = assay: Biodistribution studies: assessment of the optimum injected molar amount; details: 2 h p.i.
[2] = mouse, in vivo
Procedure: Early side effects were assessed based on the RBW of each mouse which was monitored every second day. When an endpoint was reached or at the end of the study (after 49 days), relevant organs and tissues were collected, weighed and put into relation to the brain mass and body weight of the respective mouse. This allowed comparison of organ-to-brain and organ-to-body mass weight ratios. In addition, blood plasma parameters from blood collected immediately after euthanasia were measured.
RBW, organ mass and mass ratios at the endpoint. The RBW was monitored every second day. Mice were euthanized when a predefined endpoint criterion was reached or when the study was terminated at Day 49. RBWs, organ masses, organ mass ratios (kidney-to-brain, liver-to-brain and spleen-to-brain) and organ mass to body weight ratios (kidney-to-body mass, liver-to-body mass and spleen-to-body mass) were analyzed for significance using a one-way ANOVA test with a Tukey's multiple comparisons post-test. A p-value of <0.05 was considered as statistically significant.
Blood plasma chemistry: Immediately before euthanasia of the mice that reached the endpoint, blood was sampled from the retrobulbar vein. The values of creatinine (CRE), blood urea nitrogen (BUN), alkaline phosphatase (ALP), total bilirubin (TBIL) and albumin (ALB) were determined in the plasma after centrifugation of the blood using a dry chemistry analyzer (DRI-CHEM 4000 i, FUJIFILM, Japan). The average blood plasma parameters of each group were analyzed for significance using a one-way ANOVA test with a Tukey's multiple comparisons post-test. A p-value of <0.05 was considered as statistically significant.

in vivo = details: female, athymic nude CD-1 Foxn-1/nu, mouse, iv, 1 nmol/mouse, total radioactivity

C[C@@H](O)[C@@H]1NC(=O)[C@H](CCCCN)NC(=O)[C@@H](Cc2c[nH]c3ccccc23)NC(=O)[C@H](Cc2ccc(O)cc2)NC(=O)[C@@H](NC(=O)[C@@H](Cc2ccccc2)NC(=O)CN2CCN(CC(=O)O)CCN(CC(=O)O)CCN(CC(=O)O)CC2)CSSC[C@@H](C(=O)N[C@H](CO)[C@@H](C)O)NC1=O [[^177Lu]Lu-DOTATOC] [metal not drawn]
tumor growth delay ([1]; 0.2 nmol (Day 0, Day 7)): 6.0 ± 4.4 days
tumor doubling time ([1]; 0.2 nmol, regrowth phase, fitted exponential curve): 3.4 ± 0.8 days
AR42J Tumor uptake (AR42J tumor-bearing mice; 0.040 nmol/mouse): 18 ± 3 % IA/g
Adrenals uptake (AR42J tumor-bearing mice; 0.040 nmol/mouse): 0.65 ± 0.10 % IA/g
Blood uptake (AR42J tumor-bearing mice; 0.040 nmol/mouse): ≤0.10 % IA/g
Femur uptake (AR42J tumor-bearing mice; 0.040 nmol/mouse): 0.17 ± 0.05 % IA/g
Heart uptake (AR42J tumor-bearing mice; 0.040 nmol/mouse): ≤0.10 % IA/g
Intestines uptake (AR42J tumor-bearing mice; 0.040 nmol/mouse): 0.33 ± 0.05 % IA/g
Kidneys uptake (AR42J tumor-bearing mice; 0.040 nmol/mouse): 10 ± 2 % IA/g
Liver uptake (AR42J tumor-bearing mice; 0.040 nmol/mouse): 0.18 ± 0.02 % IA/g
Lung uptake (AR42J tumor-bearing mice; 0.040 nmol/mouse): 1.1 ± 0.2 % IA/g
Muscle uptake (AR42J tumor-bearing mice; 0.040 nmol/mouse): ≤0.10 % IA/g
Pancreas uptake (AR42J tumor-bearing mice; 0.040 nmol/mouse): 1.9 ± 0.2 % IA/g
Spleen uptake (AR42J tumor-bearing mice; 0.040 nmol/mouse): 0.39 ± 0.11 % IA/g
Stomach uptake (AR42J tumor-bearing mice; 0.040 nmol/mouse): 1.7 ± 0.3 % IA/g
AR42J Tumor uptake (AR42J tumor-bearing mice; 0.20 nmol/mouse): 17 ± 4 % IA/g
Adrenals uptake (AR42J tumor-bearing mice; 0.20 nmol/mouse): 0.51 ± 0.35 % IA/g
Femur uptake (AR42J tumor-bearing mice; 0.20 nmol/mouse): 0.10 ± 0.01 % IA/g
Heart uptake (AR42J tumor-bearing mice; 0.20 nmol/mouse): ≤0.10 % IA/g
Intestines uptake (AR42J tumor-bearing mice; 0.20 nmol/mouse): 0.40 ± 0.25 % IA/g
Kidneys uptake (AR42J tumor-bearing mice; 0.20 nmol/mouse): 10 ± 3 % IA/g
Liver uptake (AR42J tumor-bearing mice; 0.20 nmol/mouse): 0.15 ± 0.03 % IA/g
Lung uptake (AR42J tumor-bearing mice; 0.20 nmol/mouse): 0.63 ± 0.03 % IA/g
Muscle uptake (AR42J tumor-bearing mice; 0.20 nmol/mouse): ≤0.10 % IA/g
Pancreas uptake (AR42J tumor-bearing mice; 0.20 nmol/mouse): 1.7 ± 0.5 % IA/g
Spleen uptake (AR42J tumor-bearing mice; 0.20 nmol/mouse): 0.15 ± 0.02 % IA/g
Stomach uptake (AR42J tumor-bearing mice; 0.20 nmol/mouse): 1.1 ± 0.2 % IA/g
AR42J Tumor uptake (AR42J tumor-bearing mice; 1.0 nmol/mouse): 8.9 ± 1.5 % IA/g
Adrenals uptake (AR42J tumor-bearing mice; 1.0 nmol/mouse): 0.28 ± 0.08 % IA/g
Blood uptake (AR42J tumor-bearing mice; 1.0 nmol/mouse): ≤0.10 % IA/g
Femur uptake (AR42J tumor-bearing mice; 1.0 nmol/mouse): ≤0.10 % IA/g
Heart uptake (AR42J tumor-bearing mice; 1.0 nmol/mouse): ≤0.10 % IA/g
Intestines uptake (AR42J tumor-bearing mice; 1.0 nmol/mouse): 0.20 ± 0.05 % IA/g
Kidneys uptake (AR42J tumor-bearing mice; 1.0 nmol/mouse): 11 ± 1 % IA/g
Liver uptake (AR42J tumor-bearing mice; 1.0 nmol/mouse): 0.26 ± 0.07 % IA/g
Lung uptake (AR42J tumor-bearing mice; 1.0 nmol/mouse): 0.37 ± 0.06 % IA/g
Muscle uptake (AR42J tumor-bearing mice; 1.0 nmol/mouse): ≤0.10 % IA/g
Pancreas uptake (AR42J tumor-bearing mice; 1.0 nmol/mouse): 0.80 ± 0.13 % IA/g
Spleen uptake (AR42J tumor-bearing mice; 1.0 nmol/mouse): 0.15 ± 0.03 % IA/g
Stomach uptake (AR42J tumor-bearing mice; 1.0 nmol/mouse): 0.65 ± 0.11 % IA/g
kidney uptake (AR42J tumor-bearing mice; irrespective of the injected amount of peptide): ~10 % IA/g
ALB (albumin), plasma [2]: 24 ± 5 g/L
ALP (alkaline phosphatase), plasma [2]: 77 ± 8 U/L
BUN (blood urea nitrogen), plasma [2]: 6.3 ± 0.9 mmol/L
CRE (creatinine), plasma [2]: <18 µmol/L
Organ mass Brain [2]: 453 ± 31 mg
Organ mass Kidneys [2]: 342 ± 23 mg
Organ mass Liver [2]: 1121 ± 123 mg
Organ mass Spleen [2]: 90 ± 17 mg

C[C@@H](O)[C@@H]1NC(=O)[C@H](CCCCN)NC(=O)[C@@H](Cc2ccc(NC(N)=O)cc2)NC(=O)[C@H](Cc2ccc(O)cc2)NC(=O)[C@H](NC(=O)[C@H](Cc2ccc(Cl)cc2)NC(=O)CN2CCN(CC(=O)O)CCN(CC(=O)O)CCN(CC(=O)O)CC2)CSSC[C@@H](C(=O)N[C@H](Cc2ccc(O)cc2)C(N)=O)NC1=O [metal not drawn] ({DOTA}-[Phe(4-Cl)][dC]Y[dPhe(4-NHCONH2)]KTC[dY]-NH2; disulfide 2-7)
ALB (albumin), plasma [2]: 23 ± 1 g/L
ALP (alkaline phosphatase), plasma [2]: 66 ± 5 U/L
CRE (creatinine), plasma [2]: 19 µmol/L
Organ mass Brain [2]: 471 ± 30 mg
Organ mass Kidneys [2]: 336 ± 13 mg
Organ mass Liver [2]: 1254 ± 106 mg
Organ mass Spleen [2]: 92 ± 17 mg
tissue uptake at 2 h (in vivo): ≤ 0.1 %ID/g
tissue uptake at 24 h (in vivo): ≤ 0.1 %ID/g
